Reference: patent publication US20230181729A1 (published 2023)

T1: PRAME (PRAME-004) peptide on HLA-A*02:01 (human)
T1 peptide: SLLQHLIGL

B1: R16P1E8 (TCR, V domains shown)
Valpha: QKEVEQDPGPLSVPEGAIVSLNCTYSNSAFQYFMWYRQYSRKGPELLMYTYSSGNKEDGRFTAQVDKSSKYISLFIRDSQPSDSATYLCAMSEAAGNKLTFGGGTRVLVKP
Vbeta: EAGVAQSPRYKIIEKRQSVAFWCNPISGHATLYWYQQILGQGPKLLIQFQNNGVVDDSQLPKDRFSAERLKGVDSTLKIQPAKLEDSAVYLCASSYTNQGEAFFGQGTRLTVV
B2: R17P1A9 (TCR, V domains shown)
Valpha: QKEVEQNSGPLSVPEGAIASLNCTYSDRGSQSFFWYRQYSGKSPELIMSIYSNGDKEDGRFTAQLNKASQYVSLLIRDSQPSDSATYLCAVLNQAGTALIFGKGTTLSVSS
Vbeta: DSGVTQTPKHLITATGQRVTLRCSPRSGDLSVYWYQQSLDQGLQFLIQYYNGEERAKGNILERFSAQQFPDLHSELNLSSLELGDSALYFCASSAETGPWLGNEQFFGPGTRLTVL
B3: R17P1D7 (TCR, V domains shown)
Valpha: AQTVTQSQPEMSVQEAETVTLSCTYDTSESDYYLFWYKQPPSRQMILVIRQEAYKQQNATENRFSVNFQKAAKSFSLKISDSQLGDAAMYFCAYRWAQGGSEKLVFGKGTKLTVNP
Vbeta: EADIYQTPRYLVIGTGKKITLECSQTMGHDKMYWYQQDPGMELHLIHYSYGVNSTEKGDLSSESTVSRIRTEHFPLTLESARPSHTSQYLCATELWSSGGTGELFFGEGSRLTVL

Target: T1, PRAME (PRAME-004) peptide on HLA-A*02:01
Experiment: cytokine release

Binding result, recognises:
B1
B2
B3
